Consider one molecule from PMC3618968 (The Journal of neuroscience : the official journal of the …, 2013).

This test deals with mouse PCDH15 EC1+2 (wild type) (mouse, UniProt Q99PJ1 27-259). Put plainly: ITC. Background: Isothermal titration calorimetry measures the heat released or taken up as one component is titrated into another.

B1: mouse CDH23 EC1+2 (domain or fragment)
chain: QVNRLPFFTNHFFDTYLLISEDTPVGSSVTQLLARDMDNDPLVFGVSGEEASRFFAVEPDTGVVWLRQPLDRETKSEFTVEFSVSDHQGVITRKVNIQVGDVNDNAPTFHNQPYSVRIPENTPVGTPIFIVNATDPDLGAGGSVLYSFQPPSPFFAIDSARGIVTVIQELDYEVTQAYQLTVNATDQDKTRPLSTLANLAIIITD
Consider B1, for which the binding result is recorded as “binds”.
